The target of assay [1] is SNAP-tagged wild-type human PTH1R (human) (UniProt Q03431). As to the kind of experiment: AlphaScreen or HTRF; crude membrane fractions (0.2–1 µg per well) of HEK293T cells with SNAP-Lumi4-Tb-labelled PTH1R, without mini-Gs; labeled M-PTH(1–14) tracer with unlabeled M-PTH(1–14); 4 h on ice. Background: Alpha assays give light when donor and acceptor beads are brought close together.

Assay [2] shares this target. As to the kind of experiment: AlphaScreen or HTRF; binding of 40 nM M-PTH(1–14) to membrane fractions supplemented with increasing concentrations of mini-Gs; data relative to PTH1R without mini-Gs; EC50 of mini-Gs read through ligand occupancy, apparent.

The source of these data is publication PMC10063554.

pEC50: −log10 of the molar value.

In assay [1], “Human [Ac5c^1, Aib^3, Q^10, Har^11, A^12, W^14]PTH(1–14) (peptide)” displayed a fold increase in affinity, membrane fractions against whole cells of 5 fold.

In the case of “M-PTH(1–14) labeled at K^13 with HiLyte dye 647 (peptide)”, the fold increase of fractional binding with increasing mini-Gs in assay [2] is below 2 fold.

The pEC50 is the EC50 on a negative log10 scale, so that one unit is a factor of ten. Consider Mini-Gs 393, for which the pEC50 in assay [2] is 5.86.
